B1: Notch homolog 2 N-terminal-like protein A (Homo sapiens), Q7Z3S9 (parent)
chain: MCVTYHNGTGYCKCPEGFLGEYCQHRDPCEKNRCQNGGTCVAQAMLGKATCRCASGFTGEDCQYSTSHPCFVSRPCLNGGTCHMLSRDTYECTCQVGFTGKECQWTDACLSHPCANGSTCTTVANQFSCKCLTGFTGQKCETDVNECDIPGHCQHGGTCLNLPGSYQCQCLQGFTGQYCDSLYVPCAPSPCVNGGTCRQTGDFTFECNCLPETVRRGTELWERDREVWNGKEHDEN
partner: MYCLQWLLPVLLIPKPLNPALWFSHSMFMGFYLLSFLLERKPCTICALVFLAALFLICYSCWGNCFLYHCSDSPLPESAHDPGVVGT
B2: Complex I assembly factor TIMMDC1, mitochondrial (Homo sapiens), Q9NPL8 (parent)
chain: MEVPPPAPRSFLCRALCLFPRVFAAEAVTADSEVLEERQKRLPYVPEPYYPESGWDRLRELFGKDEQQRISKDLANICKTAATAGIIGWVYGGIPAFIHAKQQYIEQSQAEIYHNRFDAVQSAHRAATRGFIRYGWRWGWRTAVFVTIFNTVNTSLNVYRNKDALSHFVIAGAVTGSLFRINVGLRGLVAGGIIGALLGTPVGGLLMAFQKYSGETVQERKQKDRKALHELKLEEWKGRLQVTEHLPEKIESSLQEDEPENDAKKIEALLNLPRNPSVIDKQDKD
partner: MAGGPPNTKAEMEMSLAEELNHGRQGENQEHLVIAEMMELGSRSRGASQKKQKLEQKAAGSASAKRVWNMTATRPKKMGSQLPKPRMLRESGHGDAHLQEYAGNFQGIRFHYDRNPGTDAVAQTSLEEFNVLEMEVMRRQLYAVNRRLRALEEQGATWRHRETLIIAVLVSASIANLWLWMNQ
B3: Tumor susceptibility gene 101 protein (Homo sapiens), Q99816 (parent)
chain: MAVSESQLKKMVSKYKYRDLTVRETVNVITLYKDLKPVLDSYVFNDGSSRELMNLTGTIPVPYRGNTYNIPICLWLLDTYPYNPPICFVKPTSSMTIKTGKHVDANGKIYLPYLHEWKHPQSDLLGLIQVMIVVFGDEPPVFSRPISASYPPYQATGPPNTSYMPGMPGGISPYPSGYPPNPSGYPGCPYPPGGPYPATTSSQYPSQPPVTTVGPSRDGTISEDTIRASLISAVSDKLRWRMKEEMDRAQAELNALKRTEEDLKKGHQKLEEMVTRLDQEVAEVDKNIELLKKKDEELSSALEKMENQSENNDIDEVIIPTAPLYKQILNLYAEENAIEDTIFYLGEALRRGVIDLDVFLKHVRLLSRKQFQLRALMQKARKTAGLSDLY
B4: Transcription factor 19 (Homo sapiens), Q9Y242 (parent)
chain: MLPCFQLLRIGGGRGGDLYTFHPPAGAGCTYRLGHRADLCDVALRPQQEPGLISGIHAELHAEPRGDDWRVSLEDHSSQGTLVNNVRLPRGHRLELSDGDLLTFGPEGPPGTSPSEFYFMFQQVRVKPQDFAAITIPRSRGEARVGAGFRPMLPSQGAPQRPLSTFSPAPKATLILNSIGSLSKLRPQPLTFSPSWGGPKSLPVPAPPGEMGTTPSAPPQRNRRKSVHRVLAELDDESEPPENPPPVLMEPRKKLRVDKAPLTPTGNRRGRPRKYPVSAPMAPPAVGGGEPCAAPCCCLPQEETVAWVQCDGCDVWFHVACVGCSIQAAREADFRCPGCRAGIQT
B5: Homeobox protein VENTX (Homo sapiens), O95231 (parent)
chain: MRLSSSPPRGPQQLSSFGSVDWLSQSSCSGPTHTPRPADFSLGSLPGPGQTSGAREPPQAVSIKEAAGSSNLPAPERTMAGLSKEPNTLRAPRVRTAFTMEQVRTLEGVFQHHQYLSPLERKRLAREMQLSEVQIKTWFQNRRMKHKRQMQDPQLHSPFSGSLHAPPAFYSTSSGLANGLQLLCPWAPLSGPQALMLPPGSFWGLCQVAQEALASAGASCCGQPLASHPPTPGRPSLGPALSTGPRGLCAMPQTGDAF
partner: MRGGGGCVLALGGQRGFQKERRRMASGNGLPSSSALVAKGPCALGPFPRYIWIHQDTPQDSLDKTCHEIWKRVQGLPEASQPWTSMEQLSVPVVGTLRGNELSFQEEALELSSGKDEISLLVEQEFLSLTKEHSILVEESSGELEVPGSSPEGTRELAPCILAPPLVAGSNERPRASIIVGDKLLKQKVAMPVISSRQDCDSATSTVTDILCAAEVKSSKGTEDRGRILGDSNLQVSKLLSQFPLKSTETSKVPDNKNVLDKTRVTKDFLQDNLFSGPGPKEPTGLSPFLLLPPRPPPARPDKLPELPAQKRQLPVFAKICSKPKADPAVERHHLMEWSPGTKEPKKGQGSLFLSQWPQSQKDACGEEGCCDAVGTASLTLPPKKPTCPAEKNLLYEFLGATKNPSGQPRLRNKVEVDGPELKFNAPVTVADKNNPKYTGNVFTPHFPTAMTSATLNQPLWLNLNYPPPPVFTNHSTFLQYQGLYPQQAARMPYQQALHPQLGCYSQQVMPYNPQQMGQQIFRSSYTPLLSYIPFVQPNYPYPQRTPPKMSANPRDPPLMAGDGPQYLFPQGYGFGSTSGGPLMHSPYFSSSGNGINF
B6: Syntenin-2 (Homo sapiens), Q9H190 (parent)
chain: MSSLYPSLEDLKVDQAIQAQVRASPKMPALPVQATAISPPPVLYPNLAELENYMGLSLSSQEVQESLLQIPEGDSTAVSGPGPGQMVAPVTGYSLGVRRAEIKPGVREIHLCKDERGKTGLRLRKVDQGLFVQLVQANTPASLVGLRFGDQLLQIDGRDCAGWSSHKAHQVVKKASGDKIVVVVRDRPFQRTVTMHKDSMGHVGFVIKKGKIVSLVKGSSAARNGLLTNHYVCEVDGQNVIGLKDKKIMEILATAGNVVTLTIIPSVIYEHMVKKLPPVLLHHTMDHSIPDA
partner: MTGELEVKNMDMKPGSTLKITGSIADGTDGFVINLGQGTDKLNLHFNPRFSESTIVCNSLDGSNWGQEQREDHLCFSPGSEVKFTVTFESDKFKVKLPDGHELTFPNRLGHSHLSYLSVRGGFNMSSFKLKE

Variants of: B1
Details: with blcap_human BLCAP

| Variant | effect of a mutation on the interaction |
| --- | --- |
| R74Q | with no effect |
| A115T | with no effect |

Variants of: B2
Details: with fate1_human FATE1, Q969F0

| Variant | effect of a mutation on the interaction |
| --- | --- |
| N76D | with no effect |
| A164G | with no effect |
| P247S | with no effect |

Variants of: B3
Details: with hgs_human HGS

| Variant | effect of a mutation on the interaction |
| --- | --- |
| M167I | with no effect |

Variants of: B4
Details: with dnja3_human DNAJA3, Q96EY1
Sequence of dnja3_human DNAJA3, Q96EY1 (Q96EY1 whole entry): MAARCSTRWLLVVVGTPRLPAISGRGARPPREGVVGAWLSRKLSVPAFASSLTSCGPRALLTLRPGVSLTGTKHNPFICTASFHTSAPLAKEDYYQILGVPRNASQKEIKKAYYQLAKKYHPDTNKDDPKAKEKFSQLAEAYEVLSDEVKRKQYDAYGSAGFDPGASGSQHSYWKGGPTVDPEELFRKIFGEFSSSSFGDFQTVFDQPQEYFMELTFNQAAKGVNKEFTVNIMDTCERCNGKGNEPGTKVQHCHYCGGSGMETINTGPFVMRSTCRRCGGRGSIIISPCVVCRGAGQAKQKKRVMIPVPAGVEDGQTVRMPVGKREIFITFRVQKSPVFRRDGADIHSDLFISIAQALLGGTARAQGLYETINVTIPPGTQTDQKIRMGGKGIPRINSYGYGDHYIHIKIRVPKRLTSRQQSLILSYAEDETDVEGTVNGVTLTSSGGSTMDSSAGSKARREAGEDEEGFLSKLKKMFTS

| Variant | effect of a mutation on the interaction |
| --- | --- |
| A279V | with no effect |

Variants of: B5
Details: with ca094_human C1orf94, Q6P1W5

| Variant | effect of a mutation on the interaction |
| --- | --- |
| L42P | with no effect |
| A226E | with no effect |
| M251V | with no effect |

Variants of: B6
Details: with leg2_human LGALS2, P05162

| Variant | effect of a mutation on the interaction |
| --- | --- |
| R223C | disrupting interaction strength |

Reference: IntAct's records for PubMed 31515488
